2 substances from doi:10.1101/2022.03.01.482405 can be followed below.

In test [1] the target is Photosystem I protomer from Thermosynechococcus elongatus BP-1 (His10-tag on PsaF) (Thermosynechococcus elongatus BP-1) (UniProt P0A405). In words: cryo-EM structure.
The target of test [2] is Photosystem I trimer from Thermosynechococcus elongatus BP-1 (His10-tag on PsaF) (Thermosynechococcus elongatus BP-1) (UniProt P0A405). In words: ITC.

In test [1], “Photosystem I protomer from Thermosynechococcus elongatus BP-1 (His10-tag on PsaF) (from UniProt P0A405;P0A407;P0A415;P0A420;P0A423;P0A401;P0A427;P0A429;P0A425;Q8DGB4;P0A403) (complex)” yielded a stoichiometry N of 3.
On to “gallium-substituted ferredoxin from Thermosynechococcus elongatus BP-1 (from UniProt P0A3C9) (natural protein)”, for which, in test [2], the Kd was determined as 800 µM.
